In patent US20040086528A1:
Where “and” joins values, the source holds several entries; their conditions need not be identical. Equal entries are not always repeated.

Experiments:
[1] = target: chemokine receptor C-C CKR-5 (human) (human) (UniProt P51681); test: 125I-MIP-1β (0.1 nM) competition on activated CD4+ T cells; gp120 at 5 µg/ml
[2] = target: chemokine receptor C-C CKR-5 (human) (human) (UniProt P51681); test: 125I-MIP-1β (0.1 nM) competition on activated CD4+ T cells; gp120 at 20 µg/ml
[3] = target: chemokine receptor C-C CKR-5 (human) (human) (UniProt P51681); test: 125I-MIP-1β (0.1 nM) competition on activated CD4+ T cells; gp120 at 50 µg/ml
[4] = target: chemokine receptor C-C CKR-5 (human) (human) (UniProt P51681); test: 125I-MIP-1β (0.1 nM) competition on activated CD4+ T cells; gp120 at .05 µg/ml [sic]
[5] = target: chemokine receptor C-C CKR-5 (human) (human) (UniProt P51681); test: 125I-MIP-1β (0.1 nM) competition on activated CD4+ T cells; gp120 at 0.1 µg/ml
[6] = target: chemokine receptor C-C CKR-5 (human) (human) (UniProt P51681); test: 125I-MIP-1β (0.1 nM) competition on activated CD4+ T cells; gp120 at 0.2 µg/ml
[7] = target: recombinant, monomeric JR-FL gp120 (full-length) (HIV-1 JR-FL) (UniProt P20871); test: JR-FL gp120 (2 µg/ml) against 125I-MIP-1β on activated CD4+ T cells; antibody at 20 µg/ml
[8] = target: CD4 on the cell surface (human) (human) (UniProt P01730); test: cell-based or functional assay
[9] = target: CCR5 D2A/D11A/E18A, HA-tagged (human) (UniProt P51681); test: cell-based or functional assay
[10] = target: CCR5 E18A, HA-tagged (human) (UniProt P51681); test: cell-based or functional assay
[11] = target: chemokine receptor C-C CKR-5 (human) (human) (UniProt P51681); test: 125I-MIP-1β competition, CD4- CCR-5+ 293 cells against activated CD4+ T cells
[12] = target: chemokine receptor C-C CKR-5 (human) (human) (UniProt P51681); test: 125I-MIP-1β competition on CD4- CCR-5+ 293 cells; gp120 at 50 µg/ml; strongest competition observed
[13] = target: wild-type CCR5, HA-tagged at the C-terminus (human) (UniProt P51681)
[14] = target: chemokine receptor C-C CKR-5 (human) (human) (UniProt P51681); test: 125I-MIP-1β (0.1 nM) competition on activated CD4+ T cells; gp41 at 5 µg/ml
[15] = target: HIV-1 JR-FL envelope glycoproteins (membrane-bound gp120/gp41) (HIV-1 JR-FL); test: cell-based or functional assay
[16] = target: chemokine receptor C-C CKR-5 (human) (human) (UniProt P51681); test: cell-based or functional assay
[17] = target: CCR5 Q188A, HA-tagged (human) (UniProt P51681); test: cell-based or functional assay
[18] = target: CCR5 D11A, HA-tagged (human) (UniProt P51681); test: cell-based or functional assay
[19] = target: CCR5 R274A/D276A, HA-tagged (human) (UniProt P51681); test: cell-based or functional assay
[20] = target: CCR5 Q102A, HA-tagged (human) (UniProt P51681); test: cell-based or functional assay
[21] = target: CCR5 Q93A, HA-tagged (human) (UniProt P51681); test: cell-based or functional assay
[22] = target: CCR5 H181A, HA-tagged (human) (UniProt P51681); test: cell-based or functional assay
[23] = target: CCR5 E262A, HA-tagged (human) (UniProt P51681); test: cell-based or functional assay
[24] = target: CCR5 Y184A, HA-tagged (human) (UniProt P51681); test: cell-based or functional assay
[25] = target: CCR5 N13A, HA-tagged (human) (UniProt P51681); test: cell-based or functional assay
[26] = target: CCR5 K191A/N192A, HA-tagged (human) (UniProt P51681); test: cell-based or functional assay
[27] = target: wild-type CCR5, HA-tagged at the C-terminus (human) (UniProt P51681); test: cell-based or functional assay
[28] = target: CCR5 K22A, HA-tagged (human) (UniProt P51681); test: cell-based or functional assay
[29] = target: CCR5 K26A, HA-tagged (human) (UniProt P51681); test: cell-based or functional assay
[30] = target: CCR5 R31A, HA-tagged (human) (UniProt P51681); test: cell-based or functional assay
[31] = target: CCR5 H175A, HA-tagged (human) (UniProt P51681); test: cell-based or functional assay
[32] = target: CCR5 D95A, HA-tagged (human) (UniProt P51681); test: cell-based or functional assay
[33] = target: CCR5 D2A, HA-tagged (human) (UniProt P51681); test: cell-based or functional assay
[34] = target: CCR5 K171A/E172A, HA-tagged (human) (UniProt P51681); test: cell-based or functional assay

recombinant, monomeric LAI gp120 (full-length) (from UniProt P03377 33-516) (other; other documents disagree on this pair)
percentage inhibition of 125I-MIP-1β binding [1]: -5%
percentage inhibition of 125I-MIP-1β binding [2]: -18%
percentage inhibition of 125I-MIP-1β binding [3]: -6%
percentage inhibition of 125I-MIP-1β binding [4]: -1%

soluble, oligomeric 92RW020 gp120/gp41 complex
percentage inhibition of 125I-MIP-1β binding [5]: 21%
percentage inhibition of 125I-MIP-1β binding [6]: 49%
percentage inhibition of 125I-MIP-1β binding [4]: 74%

monoclonal antibody 15e
Inhibition (%) of the gp120 competitive effect on 125I-MIP-1β binding [7]: 65%

SF170 gp120
percentage inhibition of 125I-MIP-1β binding [5]: 87%
percentage inhibition of 125I-MIP-1β binding [6]: 140%

monoclonal antibody 697-D
Inhibition (%) of the gp120 competitive effect on 125I-MIP-1β binding [7]: 3%

monoclonal antibody A32
Inhibition (%) of the gp120 competitive effect on 125I-MIP-1β binding [7]: 51%

CD4 MAb OKT4a (antibody)
% Fusion (RET), LW5 CD4+ cells with HeLa-BRU cells, OKT4A at 3 ug/ml [8]: 0%
% Fusion (RET), LW5 CD4+ cells with HeLa-JR-FL cells, OKT4A at 3 ug/ml [8]: 0%

HIV-1 JR-FL envelope glycoproteins (membrane-bound gp120/gp41)
co-receptor function of CCR5 (HIV-1 entry, luciferase), fold reduction [9]: 50 fold
co-receptor function of CCR5 (HIV-1 entry, luciferase), fold reduction [10]: 15 fold and 20 fold

monoclonal antibody 2G12
Inhibition (%) of the gp120 competitive effect on 125I-MIP-1β binding [7]: 38%

92TH014 gp120 (monomeric)
percentage inhibition of 125I-MIP-1β binding [5]: 6%
percentage inhibition of 125I-MIP-1β binding [6]: 57%
percentage inhibition of 125I-MIP-1β binding [4]: 65%

W61D gp120
percentage inhibition of 125I-MIP-1β binding [5]: 39%
percentage inhibition of 125I-MIP-1β binding [2]: 86%
percentage inhibition of 125I-MIP-1β binding [6]: 53%
percentage inhibition of 125I-MIP-1β binding [4]: 65%

soluble, oligomeric JR-FL gp120/gp41 complex
percentage inhibition of 125I-MIP-1β binding [5]: 46%
percentage inhibition of 125I-MIP-1β binding [6]: 56%
percentage inhibition of 125I-MIP-1β binding [4]: 84%

monoclonal antibody 17b
Inhibition (%) of the gp120 competitive effect on 125I-MIP-1β binding [7]: 79%

monoclonal antibody 48d
Inhibition (%) of the gp120 competitive effect on 125I-MIP-1β binding [7]: 54%

monoclonal antibody IgG1b12
Inhibition (%) of the gp120 competitive effect on 125I-MIP-1β binding [7]: 125%

monoclonal antibody 19b
Inhibition (%) of the gp120 competitive effect on 125I-MIP-1β binding [7]: 88%

recombinant, monomeric JR-FL gp120 (full-length), P20871 32-503 (other; other documents disagree on this pair)
fold higher gp120 concentration needed on CD4- cells than on CD4+ cells [11]: > 100 fold
percent inhibition of MIP-1β binding [12]: 73%
inhibition of 2D7-PE binding (%) [13]: 70%
percentage inhibition of 125I-MIP-1β binding [5]: 44%
percentage inhibition of 125I-MIP-1β binding [1]: 67%
percentage inhibition of 125I-MIP-1β binding [2]: 91%
percentage inhibition of 125I-MIP-1β binding [6]: 40%
percentage inhibition of 125I-MIP-1β binding [3]: 95%
percentage inhibition of 125I-MIP-1β binding [4]: 58%

recombinant gp41 (IIIB) ectodomain
percentage inhibition of 125I-MIP-1β binding [14]: 24%

synthetic ECL2 peptide of human CCR5 (from UniProt P51681 168-199)
inhibition of fusion between HeLa-envJR-FL cells and PM1 cells (RET), peptide at 11 µg/ml [15]: 15%
inhibition of fusion between HeLa-envJR-FL cells and PM1 cells (RET), peptide at 33 µg/ml [15]: 65%
inhibition of fusion between HeLa-envJR-FL cells and PM1 cells (RET), peptide at 100 µg/ml [15]: 97%

CM243 gp120
percentage inhibition of 125I-MIP-1β binding [5]: 17%
percentage inhibition of 125I-MIP-1β binding [2]: 76%
percentage inhibition of 125I-MIP-1β binding [6]: 40%
percentage inhibition of 125I-MIP-1β binding [4]: 56%

monoclonal antibody 447-D
Inhibition (%) of the gp120 competitive effect on 125I-MIP-1β binding [7]: 109%

antibody D7324
Inhibition (%) of the gp120 competitive effect on 125I-MIP-1β binding [7]: -13%

MIP-1α, recombinant human (from UniProt P10147 27-92) (ligand)
% Fusion (RET), LW5 CD4+ cells with HeLa-JR-FL cells, chemokine at 533 ng/ml [16]: 72%
% Fusion (RET), PM1 cells with HeLa-JR-FL cells, chemokine at 400 ng/ml [16]: 39%
% luciferase activity, entry of ADA env-complemented virus into PM1 cells, chemokine at 100 ng/ml [16]: 54%
% luciferase activity, entry of BaL env-complemented virus into PM1 cells, chemokine at 100 ng/ml [16]: 54%
relative % inhibition of NLluc/JR-FL entry into U87MG-CD4 cells by 2 µg/ml chemokine (wild-type = 100) [17]: 95%
relative % inhibition of NLluc/JR-FL entry into U87MG-CD4 cells by 2 µg/ml chemokine (wild-type = 100) [18]: 10%
relative % inhibition of NLluc/JR-FL entry into U87MG-CD4 cells by 2 µg/ml chemokine (wild-type = 100) [19]: 48%
relative % inhibition of NLluc/JR-FL entry into U87MG-CD4 cells by 2 µg/ml chemokine (wild-type = 100) [20]: 107%
relative % inhibition of NLluc/JR-FL entry into U87MG-CD4 cells by 2 µg/ml chemokine (wild-type = 100) [21]: 88%
relative % inhibition of NLluc/JR-FL entry into U87MG-CD4 cells by 2 µg/ml chemokine (wild-type = 100) [22]: 29%
relative % inhibition of NLluc/JR-FL entry into U87MG-CD4 cells by 2 µg/ml chemokine (wild-type = 100) [23]: 100%
relative % inhibition of NLluc/JR-FL entry into U87MG-CD4 cells by 2 µg/ml chemokine (wild-type = 100) [24]: 102%
relative % inhibition of NLluc/JR-FL entry into U87MG-CD4 cells by 2 µg/ml chemokine (wild-type = 100) [25]: 121%
relative % inhibition of NLluc/JR-FL entry into U87MG-CD4 cells by 2 µg/ml chemokine (wild-type = 100) [26]: 14%
relative % inhibition of NLluc/JR-FL entry into U87MG-CD4 cells by 2 µg/ml chemokine (wild-type = 100) [27]: 100%
relative % inhibition of NLluc/JR-FL entry into U87MG-CD4 cells by 2 µg/ml chemokine (wild-type = 100) [28]: 19%
relative % inhibition of NLluc/JR-FL entry into U87MG-CD4 cells by 2 µg/ml chemokine (wild-type = 100) [29]: 100%
relative % inhibition of NLluc/JR-FL entry into U87MG-CD4 cells by 2 µg/ml chemokine (wild-type = 100) [30]: -5%
relative % inhibition of NLluc/JR-FL entry into U87MG-CD4 cells by 2 µg/ml chemokine (wild-type = 100) [31]: 119%
relative % inhibition of NLluc/JR-FL entry into U87MG-CD4 cells by 2 µg/ml chemokine (wild-type = 100) [32]: 107%
relative % inhibition of NLluc/JR-FL entry into U87MG-CD4 cells by 2 µg/ml chemokine (wild-type = 100) [10]: 100%
relative % inhibition of NLluc/JR-FL entry into U87MG-CD4 cells by 2 µg/ml chemokine (wild-type = 100) [33]: 81%
relative % inhibition of NLluc/JR-FL entry into U87MG-CD4 cells by 2 µg/ml chemokine (wild-type = 100) [34]: 21%
